US12404318B2, “Combination HBV therapy” (priority 2018, dated 2025)

Test system: HBV (rAAV8-1.3HBV strain ayw, D type)
Assay: Combination therapy study in AAV-HBV mice (Example 1): serum HBsAg and HBV DNA
Format: in vivo, C57BL/6 mice
Method: The mice (C57BL/6 strain) were inoculated with the following amount of rAAV8-1.3HBV strain ayw, D type: 1.0×10^11 viral genomes per mouse in 200 μl volume via tail veins injection. Four weeks after viral inoculation, treatment with test compounds was initiated.
Entecavir was administered orally once per day.

C=C1[C@H](CO)[C@@H](O)C[C@@H]1n1cnc2c(=O)[nH]c(N)nc21 [ETV, entecavir, reference compound]
HBsAg levels from mouse serum (average log HBsAg content) (Treatment 13: ETV 0.001 mg/kg, day 0 post-dose): 4.54 log IU/ml | HBsAg levels from mouse serum (average log HBsAg content) (Treatment 13: ETV 0.001 mg/kg, day 3 post-dose): 4.54 log IU/ml | HBsAg levels from mouse serum (average log HBsAg content) (Treatment 13: ETV 0.001 mg/kg, day 7 post-dose): 4.39 log IU/ml | HBsAg levels from mouse serum (average log HBsAg content) (Treatment 13: ETV 0.001 mg/kg, day 10 post-dose): 4.29 log IU/ml | HBsAg levels from mouse serum (average log HBsAg content) (Treatment 13: ETV 0.001 mg/kg, day 14 post-dose): 4.28 log IU/ml | HBsAg levels from mouse serum (average log HBsAg content) (Treatment 13: ETV 0.001 mg/kg, day 17 post-dose): 4.24 log IU/ml | HBsAg levels from mouse serum (average log HBsAg content) (Treatment 13: ETV 0.001 mg/kg, day 21 post-dose): 4.13 log IU/ml | HBsAg levels from mouse serum (average log HBsAg content) (Treatment 13: ETV 0.001 mg/kg, day 24 post-dose): 4.21 log IU/ml | HBsAg levels from mouse serum (average log HBsAg content) (Treatment 13: ETV 0.001 mg/kg, day 28 post-dose): 3.98 log IU/ml | HBsAg levels from mouse serum (average log HBsAg content) (Treatment 13: ETV 0.001 mg/kg, day 31 post-dose): 4.02 log IU/ml | HBsAg levels from mouse serum (average log HBsAg content) (Treatment 13: ETV 0.001 mg/kg, day 35 post-dose): 3.88 log IU/ml | HBsAg levels from mouse serum (average log HBsAg content) (Treatment 13: ETV 0.001 mg/kg, day 38 post-dose): 3.92 log IU/ml | HBsAg levels from mouse serum (average log HBsAg content) (Treatment 13: ETV 0.001 mg/kg, day 42 post-dose): 3.84 log IU/ml

HBV02: chemically synthesized double-stranded oligonucleotide (siRNA) linked to a ligand with three GalNAc residues; sense SEQ ID NO:7, antisense SEQ ID NO:8 (sense GUGUGCACUUCGCUUCACA; antisense UGUGAAGCGAAGUGCACACUU; triantennary GalNAc ligand attached, chemically modified, pattern not given here)
Reduction of serum HBV DNA (viral load) relative to the saline control (AAV/HBV-infected C57BL/6 mice, HBV02 3 mg/kg, HBC34 antibody (HBC34-v7-mu-IgG2a) 15 mg/kg, alone or combined, FIGS. 2A, 2B): ~0.5 log10 | Reduction of serum HBsAg relative to the saline control (AAV/HBV-infected C57BL/6 mice, HBV02 3 mg/kg, HBC34 antibody (HBC34-v7-mu-IgG2a) 15 mg/kg, alone or combined, FIGS. 3A, 3B): 1 log10 | HBsAg levels from mouse serum (average log HBsAg content) (Treatment 1: HBV02 3 mg/kg, day 0 post-dose): 4.55 log IU/ml | HBsAg levels from mouse serum (average log HBsAg content) (Treatment 1: HBV02 3 mg/kg, day 3 post-dose): 3.99 log IU/ml | HBsAg levels from mouse serum (average log HBsAg content) (Treatment 1: HBV02 3 mg/kg, day 7 post-dose): 3.67 log IU/ml | HBsAg levels from mouse serum (average log HBsAg content) (Treatment 1: HBV02 3 mg/kg, day 10 post-dose): 3.59 log IU/ml | HBsAg levels from mouse serum (average log HBsAg content) (Treatment 1: HBV02 3 mg/kg, day 14 post-dose): 3.71 log IU/ml | HBsAg levels from mouse serum (average log HBsAg content) (Treatment 1: HBV02 3 mg/kg, day 17 post-dose): 3.69 log IU/ml | HBsAg levels from mouse serum (average log HBsAg content) (Treatment 1: HBV02 3 mg/kg, day 21 post-dose): 3.60 log IU/ml | HBsAg levels from mouse serum (average log HBsAg content) (Treatment 1: HBV02 3 mg/kg, day 24 post-dose): 3.57 log IU/ml | HBsAg levels from mouse serum (average log HBsAg content) (Treatment 1: HBV02 3 mg/kg, day 28 post-dose): 3.57 log IU/ml | HBsAg levels from mouse serum (average log HBsAg content) (Treatment 1: HBV02 3 mg/kg, day 31 post-dose): 3.81 log IU/ml | HBsAg levels from mouse serum (average log HBsAg content) (Treatment 1: HBV02 3 mg/kg, day 35 post-dose): 3.72 log IU/ml | HBsAg levels from mouse serum (average log HBsAg content) (Treatment 1: HBV02 3 mg/kg, day 38 post-dose): 3.72 log IU/ml | HBsAg levels from mouse serum (average log HBsAg content) (Treatment 1: HBV02 3 mg/kg, day 42 post-dose): 3.55 log IU/ml

B1: HBC34v7 (antibody, V domains shown)
VH: ELQLVESGGGWVQPGGSQRLSCAASGRIFRSFYMSWVRQAPGKGLEWVATINQDGSEKLYVDSVKGRFTISRDNAKNSLFLQMNNLRVEDTAVYYCAAWSGNSGGMDVWGQGTTVSVSS
VL: SYELTQPPSVSVSPGQTVSIPCSGDKLGNKNVCWFQHKPGQSPVLVIYEVKYRPSGIPERFSGSNSGNTATLTISGTQAMDEAAYFCQTFDSTTVVFGGGTRLTVL
modifications: Synthetic sequence HBC34 VH; Synthetic sequence HBC34v7 VL
HBsAg levels from mouse serum (average log HBsAg content) (Treatment 2: HBC34v7 15 mg/kg, day 0 post-dose): 4.64 log IU/ml | HBsAg levels from mouse serum (average log HBsAg content) (Treatment 2: HBC34v7 15 mg/kg, day 3 post-dose): 4.58 log IU/ml | HBsAg levels from mouse serum (average log HBsAg content) (Treatment 2: HBC34v7 15 mg/kg, day 7 post-dose): 4.46 log IU/ml | HBsAg levels from mouse serum (average log HBsAg content) (Treatment 2: HBC34v7 15 mg/kg, day 10 post-dose): 4.42 log IU/ml | HBsAg levels from mouse serum (average log HBsAg content) (Treatment 2: HBC34v7 15 mg/kg, day 14 post-dose): 4.34 log IU/ml | HBsAg levels from mouse serum (average log HBsAg content) (Treatment 2: HBC34v7 15 mg/kg, day 17 post-dose): 3.87 log IU/ml | HBsAg levels from mouse serum (average log HBsAg content) (Treatment 2: HBC34v7 15 mg/kg, day 21 post-dose): 4.09 log IU/ml | HBsAg levels from mouse serum (average log HBsAg content) (Treatment 2: HBC34v7 15 mg/kg, day 24 post-dose): 3.65 log IU/ml | HBsAg levels from mouse serum (average log HBsAg content) (Treatment 2: HBC34v7 15 mg/kg, day 28 post-dose): 4.15 log IU/ml | HBsAg levels from mouse serum (average log HBsAg content) (Treatment 2: HBC34v7 15 mg/kg, day 31 post-dose): 4.29 log IU/ml | HBsAg levels from mouse serum (average log HBsAg content) (Treatment 2: HBC34v7 15 mg/kg, day 35 post-dose): 4.25 log IU/ml | HBsAg levels from mouse serum (average log HBsAg content) (Treatment 2: HBC34v7 15 mg/kg, day 38 post-dose): 4.26 log IU/ml | HBsAg levels from mouse serum (average log HBsAg content) (Treatment 2: HBC34v7 15 mg/kg, day 42 post-dose): 4.28 log IU/ml | HBsAg levels from mouse serum (average log HBsAg content) (Treatment 3: HBC34v7 5 mg/kg, day 0 post-dose): 4.49 log IU/ml | HBsAg levels from mouse serum (average log HBsAg content) (Treatment 3: HBC34v7 5 mg/kg, day 3 post-dose): 4.37 log IU/ml | HBsAg levels from mouse serum (average log HBsAg content) (Treatment 3: HBC34v7 5 mg/kg, day 7 post-dose): 4.44 log IU/ml | HBsAg levels from mouse serum (average log HBsAg content) (Treatment 3: HBC34v7 5 mg/kg, day 10 post-dose): 4.35 log IU/ml | HBsAg levels from mouse serum (average log HBsAg content) (Treatment 3: HBC34v7 5 mg/kg, day 14 post-dose): 4.30 log IU/ml | HBsAg levels from mouse serum (average log HBsAg content) (Treatment 3: HBC34v7 5 mg/kg, day 17 post-dose): 4.28 log IU/ml | HBsAg levels from mouse serum (average log HBsAg content) (Treatment 3: HBC34v7 5 mg/kg, day 21 post-dose): 4.32 log IU/ml | HBsAg levels from mouse serum (average log HBsAg content) (Treatment 3: HBC34v7 5 mg/kg, day 24 post-dose): 4.26 log IU/ml | HBsAg levels from mouse serum (average log HBsAg content) (Treatment 3: HBC34v7 5 mg/kg, day 28 post-dose): 4.23 log IU/ml | HBsAg levels from mouse serum (average log HBsAg content) (Treatment 3: HBC34v7 5 mg/kg, day 31 post-dose): 3.99 log IU/ml | HBsAg levels from mouse serum (average log HBsAg content) (Treatment 3: HBC34v7 5 mg/kg, day 35 post-dose): 3.99 log IU/ml | HBsAg levels from mouse serum (average log HBsAg content) (Treatment 3: HBC34v7 5 mg/kg, day 38 post-dose): 4.08 log IU/ml | HBsAg levels from mouse serum (average log HBsAg content) (Treatment 3: HBC34v7 5 mg/kg, day 42 post-dose): 4.05 log IU/ml | HBsAg levels from mouse serum (average log HBsAg content) (Treatment 4: HBC34v7 1 mg/kg, day 0 post-dose): 4.50 log IU/ml | HBsAg levels from mouse serum (average log HBsAg content) (Treatment 4: HBC34v7 1 mg/kg, day 3 post-dose): 4.46 log IU/ml | HBsAg levels from mouse serum (average log HBsAg content) (Treatment 4: HBC34v7 1 mg/kg, day 7 post-dose): 4.42 log IU/ml | HBsAg levels from mouse serum (average log HBsAg content) (Treatment 4: HBC34v7 1 mg/kg, day 10 post-dose): 4.37 log IU/ml | HBsAg levels from mouse serum (average log HBsAg content) (Treatment 4: HBC34v7 1 mg/kg, day 14 post-dose): 4.40 log IU/ml | HBsAg levels from mouse serum (average log HBsAg content) (Treatment 4: HBC34v7 1 mg/kg, day 17 post-dose): 4.31 log IU/ml | HBsAg levels from mouse serum (average log HBsAg content) (Treatment 4: HBC34v7 1 mg/kg, day 21 post-dose): 4.31 log IU/ml | HBsAg levels from mouse serum (average log HBsAg content) (Treatment 4: HBC34v7 1 mg/kg, day 24 post-dose): 4.38 log IU/ml | HBsAg levels from mouse serum (average log HBsAg content) (Treatment 4: HBC34v7 1 mg/kg, day 28 post-dose): 4.29 log IU/ml | HBsAg levels from mouse serum (average log HBsAg content) (Treatment 4: HBC34v7 1 mg/kg, day 31 post-dose): 4.15 log IU/ml | HBsAg levels from mouse serum (average log HBsAg content) (Treatment 4: HBC34v7 1 mg/kg, day 35 post-dose): 4.16 log IU/ml | HBsAg levels from mouse serum (average log HBsAg content) (Treatment 4: HBC34v7 1 mg/kg, day 38 post-dose): 4.09 log IU/ml | HBsAg levels from mouse serum (average log HBsAg content) (Treatment 4: HBC34v7 1 mg/kg, day 42 post-dose): 4.08 log IU/ml | HBsAg levels from mouse serum (average log HBsAg content) (Treatment 5: HBC34v7 0.1 mg/kg, day 0 post-dose): 4.51 log IU/ml | HBsAg levels from mouse serum (average log HBsAg content) (Treatment 5: HBC34v7 0.1 mg/kg, day 3 post-dose): 4.36 log IU/ml | HBsAg levels from mouse serum (average log HBsAg content) (Treatment 5: HBC34v7 0.1 mg/kg, day 7 post-dose): 4.31 log IU/ml | HBsAg levels from mouse serum (average log HBsAg content) (Treatment 5: HBC34v7 0.1 mg/kg, day 10 post-dose): 4.17 log IU/ml | HBsAg levels from mouse serum (average log HBsAg content) (Treatment 5: HBC34v7 0.1 mg/kg, day 14 post-dose): 4.26 log IU/ml | HBsAg levels from mouse serum (average log HBsAg content) (Treatment 5: HBC34v7 0.1 mg/kg, day 17 post-dose): 4.17 log IU/ml | HBsAg levels from mouse serum (average log HBsAg content) (Treatment 5: HBC34v7 0.1 mg/kg, day 21 post-dose): 4.23 log IU/ml | HBsAg levels from mouse serum (average log HBsAg content) (Treatment 5: HBC34v7 0.1 mg/kg, day 24 post-dose): 4.25 log IU/ml | HBsAg levels from mouse serum (average log HBsAg content) (Treatment 5: HBC34v7 0.1 mg/kg, day 28 post-dose): 4.20 log IU/ml | HBsAg levels from mouse serum (average log HBsAg content) (Treatment 5: HBC34v7 0.1 mg/kg, day 31 post-dose): 4.26 log IU/ml | HBsAg levels from mouse serum (average log HBsAg content) (Treatment 5: HBC34v7 0.1 mg/kg, day 35 post-dose): 4.38 log IU/ml | HBsAg levels from mouse serum (average log HBsAg content) (Treatment 5: HBC34v7 0.1 mg/kg, day 38 post-dose): 4.38 log IU/ml | HBsAg levels from mouse serum (average log HBsAg content) (Treatment 5: HBC34v7 0.1 mg/kg, day 42 post-dose): 4.30 log IU/ml
